Results reported in paper PMC13193388 (2025).

Target: purified recombinant HIS epitope-tagged NOTCH3 extracellular domain (human, UniProt Q9UM47 40-1643, glycosylated)
Test: SPR

Chain of purified recombinant HIS epitope-tagged NOTCH3 extracellular domain (Q9UM47 40-1643): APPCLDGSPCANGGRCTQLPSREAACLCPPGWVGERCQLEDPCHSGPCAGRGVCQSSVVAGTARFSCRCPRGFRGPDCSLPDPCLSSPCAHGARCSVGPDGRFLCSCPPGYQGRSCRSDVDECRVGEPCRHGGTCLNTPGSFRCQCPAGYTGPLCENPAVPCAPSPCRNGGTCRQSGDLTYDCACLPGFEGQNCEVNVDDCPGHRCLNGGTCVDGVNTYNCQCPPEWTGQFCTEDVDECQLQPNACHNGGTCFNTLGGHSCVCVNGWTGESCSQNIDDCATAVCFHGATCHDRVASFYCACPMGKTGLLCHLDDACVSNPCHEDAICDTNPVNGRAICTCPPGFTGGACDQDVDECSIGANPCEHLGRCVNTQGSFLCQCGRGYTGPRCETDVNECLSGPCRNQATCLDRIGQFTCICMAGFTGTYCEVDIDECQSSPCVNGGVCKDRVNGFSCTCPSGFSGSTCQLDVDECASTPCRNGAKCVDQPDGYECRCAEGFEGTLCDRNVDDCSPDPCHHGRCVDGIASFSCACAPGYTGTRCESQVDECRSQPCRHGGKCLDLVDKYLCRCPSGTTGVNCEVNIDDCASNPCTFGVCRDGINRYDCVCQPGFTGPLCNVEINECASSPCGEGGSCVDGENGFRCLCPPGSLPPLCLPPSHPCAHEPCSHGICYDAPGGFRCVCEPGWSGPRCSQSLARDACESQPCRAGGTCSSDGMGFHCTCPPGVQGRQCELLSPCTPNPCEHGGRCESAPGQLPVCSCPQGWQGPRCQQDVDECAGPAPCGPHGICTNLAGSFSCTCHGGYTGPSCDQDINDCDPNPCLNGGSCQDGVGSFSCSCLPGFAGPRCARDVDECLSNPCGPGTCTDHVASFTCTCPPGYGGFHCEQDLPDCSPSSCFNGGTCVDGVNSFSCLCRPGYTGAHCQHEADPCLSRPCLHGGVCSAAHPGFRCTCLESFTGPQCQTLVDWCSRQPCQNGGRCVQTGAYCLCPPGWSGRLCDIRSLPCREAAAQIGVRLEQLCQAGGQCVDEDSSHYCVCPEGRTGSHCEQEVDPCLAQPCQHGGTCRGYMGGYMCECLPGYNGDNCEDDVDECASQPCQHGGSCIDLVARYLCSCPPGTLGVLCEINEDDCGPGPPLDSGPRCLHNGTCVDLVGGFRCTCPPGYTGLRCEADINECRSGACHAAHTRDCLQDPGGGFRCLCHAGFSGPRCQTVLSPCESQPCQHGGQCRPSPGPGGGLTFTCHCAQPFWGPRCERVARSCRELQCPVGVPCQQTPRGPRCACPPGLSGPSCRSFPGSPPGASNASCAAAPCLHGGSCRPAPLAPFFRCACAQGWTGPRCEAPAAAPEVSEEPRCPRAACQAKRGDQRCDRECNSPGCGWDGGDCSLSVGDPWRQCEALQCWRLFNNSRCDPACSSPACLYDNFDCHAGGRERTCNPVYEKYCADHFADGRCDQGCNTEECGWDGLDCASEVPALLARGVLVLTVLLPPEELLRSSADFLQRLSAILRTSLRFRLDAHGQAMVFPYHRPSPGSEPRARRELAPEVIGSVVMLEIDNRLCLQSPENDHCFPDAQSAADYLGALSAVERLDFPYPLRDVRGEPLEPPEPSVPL

Kd	Binder
13.1 nM	EKYCADHFADGR [N34 peptide]
1180 nM	EKYGGGHFADGR [control peptide (EKYGGGHFADGR)]
